Reference: patent US20260176627A1 (University of Washington, published 2026)

Molecular target: T1, NLS-λN-GFP1-10
T1 construct: also called LambdaN-GFP1-10; second protein of pCMV::GFP11-NLS-MCP-IRES-NLS-λN-GFP1-10; not shown: my translati
Assay: split-GFP complementation, fluorescence in transfected HEK293T cells

B1: GFP11-NLS-MCP (other, not shown: small tags and cut ends)
chain: MRDHMVLHESVNAAGITASNFTQFVLVDNGGTGDVTVAPSNFANGVAEWISSNSRSQAYKVTCSVRQSSAQKRKYTIKVEVPKVATQTVGGVELPVAAWRSYLNMELTIPIFATNSDCELIVKAMQGLLKDGNPIPSAIAANSGLY
notes: linker and NLS are known only from the DNA; also called first protein of pCMV::GFP11-NLS-MCP-IRES-NLS-λN-GFP1-10; Split-GFP-RNAadaptor (one of the pair)
binding result: binds
